Series [1] deals with T1, GST-IRP2 (Homo sapiens, UniProt P48200 1-963).
T1 sequence: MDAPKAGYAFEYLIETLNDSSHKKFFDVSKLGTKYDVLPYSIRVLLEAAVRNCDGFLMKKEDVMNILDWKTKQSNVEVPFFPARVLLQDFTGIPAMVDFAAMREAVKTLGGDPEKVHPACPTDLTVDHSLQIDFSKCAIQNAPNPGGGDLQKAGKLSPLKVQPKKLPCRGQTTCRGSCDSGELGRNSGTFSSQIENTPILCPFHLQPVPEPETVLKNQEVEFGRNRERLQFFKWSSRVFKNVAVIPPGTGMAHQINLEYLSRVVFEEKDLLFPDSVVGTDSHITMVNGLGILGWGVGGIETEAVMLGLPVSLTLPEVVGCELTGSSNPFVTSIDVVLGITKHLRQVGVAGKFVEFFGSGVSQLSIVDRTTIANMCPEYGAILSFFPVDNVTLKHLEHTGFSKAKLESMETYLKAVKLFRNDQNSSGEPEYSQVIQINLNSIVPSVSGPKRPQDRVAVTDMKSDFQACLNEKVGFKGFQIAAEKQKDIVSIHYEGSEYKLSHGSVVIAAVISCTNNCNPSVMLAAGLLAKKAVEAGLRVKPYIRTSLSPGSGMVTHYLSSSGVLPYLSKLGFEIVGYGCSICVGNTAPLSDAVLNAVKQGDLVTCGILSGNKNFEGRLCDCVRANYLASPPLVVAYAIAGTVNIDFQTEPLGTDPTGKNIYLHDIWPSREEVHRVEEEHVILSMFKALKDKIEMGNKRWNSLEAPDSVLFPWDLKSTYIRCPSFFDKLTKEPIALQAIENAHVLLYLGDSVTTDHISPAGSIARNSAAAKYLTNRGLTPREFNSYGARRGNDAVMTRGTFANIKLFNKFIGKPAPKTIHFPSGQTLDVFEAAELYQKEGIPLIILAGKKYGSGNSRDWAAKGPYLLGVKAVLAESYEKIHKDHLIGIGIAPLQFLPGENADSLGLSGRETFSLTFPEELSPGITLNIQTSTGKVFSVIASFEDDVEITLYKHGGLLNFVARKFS
The experiment in a line: EMSA. For orientation: Mobility shift assays separate free from complexed probe on a gel.

Series [2] addresses T2, GST-IRP1 (Homo sapiens, UniProt P21399 1-889).
T2 sequence: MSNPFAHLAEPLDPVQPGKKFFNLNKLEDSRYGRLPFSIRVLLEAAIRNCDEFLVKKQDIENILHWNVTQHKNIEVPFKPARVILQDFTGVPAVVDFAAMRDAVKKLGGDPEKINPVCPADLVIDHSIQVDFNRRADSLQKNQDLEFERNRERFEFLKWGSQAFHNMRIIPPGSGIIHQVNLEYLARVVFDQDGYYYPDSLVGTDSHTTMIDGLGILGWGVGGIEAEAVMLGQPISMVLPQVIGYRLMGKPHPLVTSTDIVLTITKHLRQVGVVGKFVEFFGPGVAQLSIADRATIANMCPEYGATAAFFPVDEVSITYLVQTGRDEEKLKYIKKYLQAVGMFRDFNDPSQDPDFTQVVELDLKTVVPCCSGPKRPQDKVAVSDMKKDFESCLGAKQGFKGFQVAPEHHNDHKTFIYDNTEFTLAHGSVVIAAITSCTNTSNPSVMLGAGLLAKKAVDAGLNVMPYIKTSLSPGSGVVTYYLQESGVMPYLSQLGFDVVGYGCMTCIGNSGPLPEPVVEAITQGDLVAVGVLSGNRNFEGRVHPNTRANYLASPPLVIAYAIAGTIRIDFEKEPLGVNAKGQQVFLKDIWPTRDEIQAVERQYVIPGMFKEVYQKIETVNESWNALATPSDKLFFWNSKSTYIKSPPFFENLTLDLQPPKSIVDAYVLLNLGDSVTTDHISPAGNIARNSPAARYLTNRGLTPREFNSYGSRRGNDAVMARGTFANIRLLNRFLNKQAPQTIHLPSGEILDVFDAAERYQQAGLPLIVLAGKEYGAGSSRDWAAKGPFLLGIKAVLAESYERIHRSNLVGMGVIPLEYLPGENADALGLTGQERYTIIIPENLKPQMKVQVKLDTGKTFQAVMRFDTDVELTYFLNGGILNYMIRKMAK
The experiment in a line: EMSA.

With CCUGGUUUUUAAGGAGUGUCGCCAGAGUGCCGCGAAUGAAAAA (ssRNA) [non-IRE control RNA], the binding result in series [1] and in series [2] was “no binding” in each case.

Turning to GAGGGGGCUUGCACAGAGUUGGAGCCAGAGG (structured_RNA) [CD63 5' UTR IRE], the binding result in series [1] and in series [2] was “binds” each time.
